We go through two molecules from patent US20250353904A1 (INSTITUTE OF SCIENCE TOKYO, published 2025).

Test [1] addresses T1, human disulfide HMGB1 (human, UniProt P09429 1-215, disulfide form (ds-HMGB1) as printed; the cysteines involved are not stated).
T1 construct: also called human dsHMGB1; ds-HMGB1
T1 sequence (looked up): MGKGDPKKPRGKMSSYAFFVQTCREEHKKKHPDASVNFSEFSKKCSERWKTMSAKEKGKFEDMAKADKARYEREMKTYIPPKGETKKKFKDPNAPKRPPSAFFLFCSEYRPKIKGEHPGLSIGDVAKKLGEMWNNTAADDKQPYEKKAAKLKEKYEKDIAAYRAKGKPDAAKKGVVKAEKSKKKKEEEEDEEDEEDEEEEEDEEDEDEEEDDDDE
The test can be described thus: SPR, antibody after against before 6-month storage at 4 C. Background: SPR reads the build-up and loss of mass on a sensor chip optically.

Test [2] has as its target T2, human reduced HMGB1 (human, UniProt P09429 1-215, reduced form as printed).
T2 sequence (looked up): T1 sequence (looked up)
Description: SPR as in Example 1; unit inferred; human reduced HMGB1.

For test [3], the target named is T1, human disulfide HMGB1. Description: SPR as in Example 1; unit inferred; human dsHMGB1; before storage.
For test [4], the target named is T2, human reduced HMGB1. The test can be described thus: ELISA, saturation curve: concentration of bound antibody against concentration of added antibody, on human reduced HMGB1.
The target in test [5] is T1, human disulfide HMGB1. The test can be described thus: ELISA, saturation curve: concentration of bound antibody against concentration of added antibody, on human dsHMGB1.
In test [6] the target is T1, human disulfide HMGB1. Description: SPR, antibody after 6-month storage at 4 C; unit inferred; after storage for 6 months at 4° C.
Test [7] addresses human HMGB1 protein (human) (UniProt P09429). Description: SPR, Biacore T100, antibody immobilized on chip, human HMGB1 as analyte.

B1: human monoclonal antibody #129-L2 (antibody, human IgG1, kappa, V domains shown)
VH: EVQLLESGGGLVQPGGSLRLSCAASGFTFSSYAMSWVRQAPGKGLEWVSDISGSGGSTYYADSVKGRFTISRDNSKNTLYLQMNSLRAEDTAVYYCARGYGMDVWGQGTMVTVSS
VL: DIQMTQSPSSLSASVGDRVTITCRASQSVTNYLAWYQQKPGKAPKLLIYGASILETGVPSRFSGSGSGTDFTLTINSLQPEDFATYYCLQHASTPLTFGQGTKLEIKT
The Kd is a measure of binding affinity in units of concentration. By Km is commonly meant the concentration of substrate that gives half-maximal velocity. As for B1, in the test with human disulfide HMGB1 [1], the “fold increase of KD after storage against before storage” value was ~2.5 fold. Further, the dissociation constant Kd came to 15.1 µM with human reduced HMGB1 [2]; 0.0144 nM with human disulfide HMGB1 [3]; 6.88 µM with human reduced HMGB1 [4]; 0.0549 nM with human disulfide HMGB1 [5]; 0.0351 nM with human disulfide HMGB1 [6]. In the test with human reduced HMGB1 [4], the Km is 4.34e-09 M (from the axes; none beside the number).

B2: mouse monoclonal antibody 2C8C (antibody, from another filing, V domains shown)
VH: QVQLQQSGPELVKPGASVKLSCKASGYTFTDYTIHWVKQSPGQGLEWIGWIYPGSGNTKYNDKFKGKATMTADKSSSTAYMQLSSLTSEDSAVYFCARGFAYWGQGTLVTVSA
VL: DIVLTQSPATLSVTPGDSVSLSCRASQSISNNLHWYQQKSHESPRLLIKYASQSISGIPSRFSGSGSGTDFTLSINSVETEDFGMYFCQQTNSWPLTFGAGTKLELK
Take B2: the Kd in test [7] was 1.95 nM.
